Data as given in patent US9284369B2, “Inhibition of angiogenesis” (Genentech, Inc., priority 2007, dated 2016).

Key:
[1] = test system: PKR2/EG-VEGFR2 expression; assay: Regulation of PKR2/EG-VEGFR2 expression in human bone marrow cells and neutrophils; assay type: cell-based
Source text: Taqman reagents for human PKR1/EG-VEGFR1 and PKR2/EG-VEGFR2 were obtained from Applied Biosystems.
Recombinant human MCP-1, MIP-1α, MIP-1β, MIP-2, bFGF, VEGF, GM-CSF, G-CSF, SDF-1α, M-CSF, Erythropoietin (EPO) and TNFα were purchased from R&D Systems (Minneapolis, Minn.). Recombinant human IL-8, IFNγ, Bv8 (Prokineticin-2), IL-4, IL-10, IL-13, TGF-β were from PeproTech Inc. (Rocky Hill, N.J.). SCF (Stem Cell factor) was from Invitrogen Biosource (Carlsbad, Calif.). In some cases, G-CSF from Amgen (Neupogen/Filgrastim) was used. All cytokines were used at 10 ng/ml. Freshly purified cells were washed and re-suspended in HBSS media containing 0.2% BSA (low endotoxin, Serologicals Corp. Norcross, Ga.). Two million cells were incubated in 24-well plates with various cytokines and chemokines for 4 hr at 37° C. in a 5% CO2 incubator. Cells were then transferred into eppendorf tubes, centrifuged and lysed with RNA lysis buffer (Qiagen, Valencia, Calif.). Bv8 expression was assessed by Taqman with RPL19 (Ribosomal Protein L19) as the internal control gene.

[2] = test system: Bv8 protein levels; assay: In vivo G-CSF administration, Bv8 protein levels (ELISA); parameters: species or system mouse
Procedure: Eight weeks old Balb/c mice were subcutaneously injected with 10 μg recombinant human G-CSF (Neupogen, Amgen) daily for eight consecutive days. Control animals were given PBS. At the end of study, BM, whole blood and spleen samples were taken for analysis. One group of animals was maintained for two days after G-CSF discontinuation. Neutrophil count was done using an automated, high-resolution, flow cytometry-based hematology analyzer (CellDyn 3000). Serum and BM Bv8 levels were measured by ELISA.
MaxiSorp® 96-well microwell plates (Nalge Nunc International, Rochester, N.Y.) were coated with […] 3F1 antibody (a mouse anti-human BV8 antibody, which also binds to mouse Bv8 in 50 mM carbonate buffer, pH 9.6, at 4° C. overnight. Plates were washed with PBS containing 0.05% polysorbate 20 and blocked with 0.5% bovine serum albumin, 10 ppm Proclin 300™ (Supelco, Bellefonte, Pa.) in PBS at room temperature for 1 h. After plates were washed, mouse BV8 standards (0.039-2.50 ng/ml in 2-fold serial dilution, Genentech) and samples (minimum 1:10 dilution) in PBS containing 0.5% bovine serum albumin, 0.05% polysorbate 20, 10 ppm Proclin 300® (Supelco, Bellefonte, Pa.) and 0.35N NaCl (sample buffer) were added to the plates. The plates were incubated for 2 h at room temperature. Unbound antibody was removed by a wash step. Antibody bound to the plates was detected by adding biotinylated 4E10 antibody (a hamster anti-mouse BV8 antibody, Genentech) followed by streptavidin-HRP (GE Healthcare, Buckinghamshire, United Kingdom) and 3,3′,5,5′-tetramethyl benzidine (Kirkegaard & Perry Laboratories, Gaithersburg, Md.) as the substrate. The reaction was stopped by adding 1 M phosphoric acid. Absorbance was read at 450 nm on a Titertek™ stacker reader (ICN, Costa Mesa, Calif.). The titration curves of the standards were fit using a four-parameter regression curve-fitting program (Genentech). Data points which fell in the range of the standard curve were used for calculating the mouse BV8 concentrations in samples.

B1: G-CSF: recombinant granulocyte-CSF: mouse or human (R&D Systems) or human Neupogen (Amgen) (protein, chains of the INN, looked up)
chain: MTPLGPASSLPQSFLLKCLEQVRKIQGDGAALQEKLCATYKLCHPEELVLLGHSLGIPWAPLSSCPSQALQLAGCLSQLHSGLFLYQGLLQALEGISPELGPTLDTLQLDVADFATTIWQQMEELGMAPALQPTQGAMPAFASAFQRRAGGVLVASHLQSFLEVSYRVLRHLAQP
regulation of PKR2/EG-VEGFR2 in human bone marrow [1]: regulate PKR2/EG-VEGFR2 to a significant level | increase of Bv8 levels in the BM above background ([2]; 24 hours after G-CSF administration): ~30 fold | serum Bv8 levels ([2]; after G-CSF administration): dramatically increased | Bv8 levels in kidney, brain and liver ([2]; data not shown): no effect | time for BM and serum Bv8 to return to near baseline after discontinuing G-CSF ([2]; mouse, in vivo): ≤ 48 h
